Sequences and labels used below:
B1: MON-HT9: engineered oxygenase protein, amino acid sequence SEQ ID NO:40 (protein)
chain: MHAALTPLTNKYRFIDVQPLTGVLGAEITGVDLREPLDDSTWNEILDAFHTYQVIYFPAQQITNEQHISFSRRFGPVDPVPLLKSIEGYPEVQMIRREANESGRILGDDWHTDSTFLDAPPAAVVMRAIEVPEYGGDTGFLSMYSAWDTLSDTMKATIEGLNVVHSATRVFGSLYQAQNWRFSNTSVKVMDVDAGDRETVHPLVVSHPVTGRRALYCNQVYCQRIEGMTDAESKCLLQFLYEHATKFDFTCRVRWKKDQVLVWDNLCTMHRAVPDYAGKFRYLTRTTVAGDRPAR
B2: MON-HT3: engineered oxygenase protein, amino acid sequence SEQ ID NO:22 (protein)
chain: MHAALSPLSQRFERIAVQPLTGVLGAEITGVDLREPLDDSTWNEILDAFHTYQVIYFPGQAITNEQHIAFSRRFGPVDPVPLLKSIEGYPEVQMIRREANESGRVIGDDWHTDSTFLDAPPAAVVMYAKEVPPYGGDTLFASMYTAWETLSPTMQATIEGLNVVHSATRVFGSLYQAQNRRFSNTSVKVMDVDAGDRETVHPLVVTHPETGRKGLYVNQVYCQRIEGMSEKESEPLLSFLFAHATKPEFTCRVRWQEGQVLVWDNLCTQHFAVPDYAGKFRYLTRTTVGGVRPAR
B3: MON-HT5: engineered oxygenase protein, amino acid sequence SEQ ID NO:28 (protein)
chain: MHAALTPLTNKYRFIDVQPLTGVLGAEITGVDLREPLDDSTWNEILDAFHTYQVIYFPGQAITNEQHIAFSRRFGPVDPVPLLKSIEGYPEVQMIRREANESGRVIGDDWHTDSTFLDAPPAAVVMRAIEVPEYGGDTGFLSMYSAWETLSPTMQATIEGLNVVHSATKVFGSLYQATNWRFSNTSVKVMDVDAGDRETVHPLVVTHPVTGRRALYCNQVYCQKIQGMTDAESKSLLQFLYEHATKFDFTCRVRWKKDQVLVWDNLCTMHRAVPDYAGKFRYLTRTTVAGDKPSR
B4: MON-HT4: engineered oxygenase protein, amino acid sequence SEQ ID NO:25 (protein)
chain: MHAALTPLTNKYRFIDVQPLTGVLGAEITGVDLREPLDDSTWNEILDAFHTYQVIYFPGQAITNEQHIAFSRRFGPVDPVPLLKSIEGYPEVQMIRREANESGRVIGDDWHTDSTFLDAPPAAVVMYAREVPPYGGDTGFLSMYTAWETLSPTMQATIEGLNVVHSATRVFGSLYQAQNRRYSNTSVKVMDVDAGDRETVHPLVVSHPVTGRRALYCNQVYCQRIEGMTDAESKSLLQFLYEHATKFDFTCRVRWKKDQVLVWDNLCTMHRAVPDYAGKFRYLTRTTVAGDKPSR

Test system in one data set: not given
Experiment: not given
In kind it is physicochemical. Particulars: buffer. In short, it runs like this: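 Thermal shift assay: purified enzyme in 30 mM Tris pH7.5, 150 mM NaCl, with or without 50 uM Fe2+ and 1.0 mM aKG. Unfolding followed by SYPRO orange fluorescence from 10° C. to 95° C. in 0.5° C. steps; melting temperature (T1/2) taken from the curve.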
On to B1, for which the “T1/2, temperature where 50% of the protein was unfolded, Buffer plus Fe2+ and aKG” value worked out at 60 °C.
For B2, the “T1/2, temperature where 50% of the protein was unfolded, Buffer plus Fe2+ and aKG” value was 48 °C.
Take B3: the “T1/2, temperature where 50% of the protein was unfolded, Buffer plus Fe2+ and aKG” value amounted to 61 °C.
With B4, the “T1/2, temperature where 50% of the protein was unfolded, Buffer plus Fe2+ and aKG” value amounted to 44 °C.

The same data set, now with this note: buffer, pH 7.5.
B1: the “T1/2, temperature where 50% of the protein was unfolded, Buffer” value is 61 °C.
As for B2, the “T1/2, temperature where 50% of the protein was unfolded, Buffer” value was found to be 46 °C.
For the molecule B3, the “T1/2, temperature where 50% of the protein was unfolded, Buffer” value was 60 °C.
The same measure, in the same setting: under B4 stands 43 °C.

Test system in another data set: not listed separately
In words: kinetic analysis, non-endpoint assay at 23° C. It counts as biochemical. Particulars: 23° C.; purified His-tagged protein; standard error in parenthetical. Put shortly: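 Purified C-terminal 6-His-tagged recombinant enzymes expressed in bacteria; quizalofop-P or 2,4-D as substrate. Vmax reported as specific activity (umol herbicide product mg enzyme-1 min-1) and Km as mM herbicide substrate, with standard error.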
With B1, the “Vmax Quizalofop” value is given as 0.53 (−0.02) umol herbicide product mg enzyme-1 min-1.
The same measure, in the same setting: under B2 stands 0.77 (−0.04) umol herbicide product mg enzyme-1 min-1; under B3, 0.57 (−0.03) umol herbicide product mg enzyme-1 min-1.
With B4, the “Vmax Quizalofop” value was 0.30 (−0.02) umol herbicide product mg enzyme-1 min-1.

The data set is the same for the next values; noted with them: 23° C.; purified His-tagged protein; standard error in parenthetical; read-out: Km Quizalofop.
The Km is the concentration of substrate that gives half-maximal velocity. As to B1, the Km was found to be 100 µM.
Turning to B2, the Km came to 380 µM.
Consider B3, for which the Km is 170 µM.
B4: the Km came out at 240 µM.

The same data set, now with this note: standard error in parenthetical, NDB = activity not robust enough for kinetic characterization.
As for B1, the “Km 2,4-D” value is “NDB” and the “Vmax 2,4-D” value is “NDB”.
For the molecule B2, the “Vmax 2,4-D” value is 0.10 (−0.01) umol herbicide product mg enzyme-1 min-1.
In the case of B3, the “Km 2,4-D” value is given as “NDB” and the “Vmax 2,4-D” value was “NDB”.
Turning to B4, the “Km 2,4-D” value is “NDB” and the “Vmax 2,4-D” value was “NDB”.

The data set is the same for the next values; noted with them: standard error in parenthetical, NDB = activity not robust enough for kinetic characterization, read-out: Km 2,4-D.
Consider B2, for which the Km is 270 µM.

The next data set deals with F1 hybrid maize plants. In words: efficacy field trial with segregating F1 hybrid plants. It counts as in vivo. Particulars: CTP A; 2,4-D amine 2× at VE-V2 (plus quizalofop-P 0.5×), V4, V8. The procedure: Ten unique engineered proteins optimized for activity at higher temperatures were selected for maize transformation and analysis in plants. DNA constructs were produced for expressing these engineered proteins with codon usage optimized for monocot expression using methods known to those skilled in the art. Enhancers, promoters, leaders, introns, CTPs, and 3′UTRs were tested in various combinations with the engineered proteins in these DNA constructs. The DNA constructs were used to transform immature maize (LH244) embryos with these vectors using Agrobacterium tumifaciens and standard methods known in the art. Regenerated R0 transgenic plantlets were grown in the green house.
Transgenic R0 maize plants were screened by the application of quizalofop-P (2×) plus 2,4-D (2×) at 7 to 10 days following transplant into plugs (generally corresponding to V3-V4 growth stage). All constructs tested produced plants containing unique events that passed the RO screen. The R0 plants were selfed to generate R1 homozygous seed and the R0 was also used as the male to cross with inbred plants containing maize event MON89034 to generate segregating F1 hybrid seed for efficacy field trials.
An efficacy field trial was conducted with segregating F1 hybrid plants, with 50% hemizygous and 50% null for the transgene. Tolerance to quizalofop-P (2×) plus 2,4-D (2×) was assessed using two herbicide application regimens: (1) quizalofop-P (Assure II) at 0.16 lb ai/acre (2×) plus 0.25% v/v non-ionic surfactant (NIS) applied at VE-V2 growth stage followed by the same at V4 growth stage followed by the same at V8 growth stage and (2) 2,4-D amine at 2 lb ae/acre (2×) plus quizalofop-P at 0.04 lb ai/acre (0.5×) plus 0.25% v/v NIS applied at VE-V2 growth stage followed by 2,4-D amine at 2 lb ae/acre (2×) plus 0.25% v/v NIS applied at V4 growth stage followed by the same at V8 growth stage. The 50% of the plants that were null for transgene were removed by the first quizalofop-P application at VE-V2 growth stage. Plots were visually rated 10-14 days after application for crop injury on a scale of 0 to 100 with “0” being none and “100” being complete crop destruction. […] The percentage injury rating with 2× application of 2,4-D at V8 growth stage ranged from a high of 40% to a low of 0. Similarly, the percentage injury rating with 2× application of quizalofop-P at V8 growth stage ranged from a high of 90% to a low of 0. Variation in injury rating between plants expressing the same protein is likely due to variations in construct design or transgene insertion location.
For B1, the “% Injury from V4 2,4-D” value is listed as 20% and the “% Injury from V8 2,4-D” value was 40%.
On to B2, for which the “% Injury from V4 2,4-D” value was 21.7% and the “% Injury from V8 2,4-D” value is 9.2%.
In the case of B3, the “% Injury from V4 2,4-D” value is listed as 27.2% and the “% Injury from V8 2,4-D” value came to 17.4%.
As to B4, the “% Injury from V4 2,4-D” value was found to be 22.3% and the “% Injury from V8 2,4-D” value came out at 12.3%.

The same data set, now with this note: CTP A; quizalofop-P 2× at VE-V2, V4, V8.
In the case of B1, the “% Injury from V4 Quizalofop” value came out at 5% and the “% Injury from V8 Quizalofop” value turned out to be 5%.
For B2, the “% Injury from V4 Quizalofop” value was determined as 1.6% and the “% Injury from V8 Quizalofop” value came out at 0.5%.
For B3, the “% Injury from V4 Quizalofop” value is reported as 6.8% and the “% Injury from V8 Quizalofop” value was 1.7%.
As to B4, the “% Injury from V4 Quizalofop” value was 6.1% and the “% Injury from V8 Quizalofop” value is on record as 0%.

Test system in a further data set: not listed separately
In words: enzyme activity assay at 23° C. with purified enzyme. Particulars: haloxyfop, fenoxaprop, fluazifop and dichlorprop. In kind it is biochemical. The procedure: The enzyme activity of MON-HT protein variants with haloxyfop, fenoxaprop, fluazifop, and dichlorprop as substrates was determined using the enzyme activity assay conducted at 23° C. with purified enzyme. The activity was recorded as the maximum activity as a percentage of the wild-type enzyme's activity, which was set at 100%.
B1: the “maximum activities for all four substrates compared with the wild-type enzyme” value is reported as “lower than, or equal to”.
Consider B2, for which the “maximum activities for all four substrates compared with the wild-type enzyme” value was “lower than, or equal to”.
B3: the “maximum activities for all four substrates compared with the wild-type enzyme” value is “lower than, or equal to”.
On to B4, for which the “maximum activities for all four substrates compared with the wild-type enzyme” value was “lower than, or equal to”.

Staying with this data set, now noted: purified enzyme, wild-type set at 100%.
Turning to B1, the “maximum activity as a percentage of the wild-type enzyme's activity, Haloxyfop” value worked out at 91%.
Still for that read-out and setting: under B2 stands 67%; under B3, 100%; under B4, 49%.

The data set is the same for the next values; noted with them: wild-type set at 100%.
Take B1: the “maximum activity as a percentage of the wild-type enzyme's activity, Dichlorprop” value (shortened to “maximum activity as a percentage … Dichlorprop”) came to 19%; the “maximum activity as a percentage of the wild-type enzyme's activity, Fenoxaprop” value (“maximum activity as a percentage … Fenoxaprop” for short) is 67%; the “maximum activity as a percentage of the wild-type enzyme's activity, Fluazifop” value (shortened to “maximum activity as a percentage … Fluazifop”) came to 41%.
Regarding B2, the “maximum activity as a percentage … Dichlorprop” value was determined as 100%; the “maximum activity as a percentage … Fenoxaprop” value was found to be 83%; the “maximum activity as a percentage … Fluazifop” value stood at 60%.
Take B3: the “maximum activity as a percentage … Dichlorprop” value came out at 36%; the “maximum activity as a percentage … Fenoxaprop” value turned out to be 92%; the “maximum activity as a percentage … Fluazifop” value is recorded as 46%.
On to B4, for which the “maximum activity as a percentage … Dichlorprop” value is listed as 39%; the “maximum activity as a percentage … Fenoxaprop” value is given as 53%; the “maximum activity as a percentage … Fluazifop” value was 52%.

The record behind these values is patent US12723255B2, “Herbicide tolerance genes and methods of use thereof” (priority 2014, dated 2026).
